Like-named read-outs stand apart in the source and are kept apart here. Square brackets hold non-standard residues; d marks the D form. Primed or numbered codes have the meaning given here. Ends that are not written are not given here. * marks the point of attachment. acetamidofluorescein″ = acetamidofluorescein (5-iodoacetamidofluorescein attached to the C-terminal Cys); Fluorescein(5-NHCOCH2) = O=C(C*)Nc1ccc2c(c1)C(=O)OC21c2ccc(O)cc2Oc2cc(O)ccc21; pS = N[C@@H](COP(=O)(O)O)C(=O)O

The target in assay [1] is T1, HisKIX (UniProt P45481 586-672).
T1 construct: range 586-672; the residue numbers fit mouse CBP; also called His-tagged CBP KIX domain; CBP KIX; not shown: amino-terminal hexahistidine tag and linker of pET15b
As to the kind of experiment: FP with HisKIX.

Assay [2] addresses T1, HisKIX. The experiment in a line: FP, fluorescein-labelled peptide titrated with HisKIX, 25 C.
For assay [3], the target named is T2, Human recombinant Bcl-2 (1-205), soluble GST-fusion (Santa Cruz Biotechnology) (human, UniProt P10415 1-205).
T2 construct: Bought; also called GST-Bcl-2; not shown: glutathione S-transferase (GST) fusion partner
The experiment in a line: fluorescence emission titration, fluorescein-labelled peptide + serially diluted Bcl-2, 4 C, PBS.

Assay [4] addresses T1, HisKIX. As to the kind of experiment: FP, fluorescein-labelled peptide titrated with HisKIX, 25 C. This is another data set of the same source.
Assay [5] concerns the target carbonic anhydrase II (Sigma). The experiment in a line: FP, 50 nM fluorescein-labelled peptide titrated with carbonic anhydrase II, 25 C.
Assay [6] deals with T3, CBP KIX, wild type (Example 20) (UniProt P45481 586-665, limits assumed).
T3 construct: domain: KIX; also called wild type CBP KIX; CBP MX
As to the kind of experiment: FP with CBP KIX.

The target in assay [7] is T3, CBP KIX, wild type (Example 20). As to the kind of experiment: FP, fluorescein-labelled PPKID4^P variant titrated with CBP KIX.

T1 sequence (P45481 586-672): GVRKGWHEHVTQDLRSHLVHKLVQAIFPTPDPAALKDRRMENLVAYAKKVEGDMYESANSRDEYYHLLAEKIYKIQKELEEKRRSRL
T2 sequence (P10415 1-205): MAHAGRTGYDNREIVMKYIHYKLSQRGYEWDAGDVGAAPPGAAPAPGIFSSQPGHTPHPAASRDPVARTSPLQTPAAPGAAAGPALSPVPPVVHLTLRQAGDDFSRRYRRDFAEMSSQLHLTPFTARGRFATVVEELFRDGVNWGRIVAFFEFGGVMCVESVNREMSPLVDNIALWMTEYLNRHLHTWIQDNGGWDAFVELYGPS
T3 sequence (P45481 586-665 limits assumed): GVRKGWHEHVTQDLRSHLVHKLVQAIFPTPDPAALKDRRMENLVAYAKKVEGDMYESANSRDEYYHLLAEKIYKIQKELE
Chain of carbonic anhydrase II (Sigma) (P00921 2-260): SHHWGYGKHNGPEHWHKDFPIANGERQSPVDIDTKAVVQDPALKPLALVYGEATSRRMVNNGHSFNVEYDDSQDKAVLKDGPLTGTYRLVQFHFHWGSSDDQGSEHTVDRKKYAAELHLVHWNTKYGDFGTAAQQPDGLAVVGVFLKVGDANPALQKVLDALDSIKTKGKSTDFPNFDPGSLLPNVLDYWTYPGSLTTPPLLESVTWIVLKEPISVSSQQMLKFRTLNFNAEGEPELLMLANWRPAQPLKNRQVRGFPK

B1: PPKID6^P (designed binder)
peptide: GISWPTFEGDDAPVRRL[pS]FFYILLDLYLDAPGVC(Fluorescein(5-NHCOCH2))-NH2
modifications: N-terminus assumed
SMILES: CC[C@H](C)[C@H](NC(=O)CN)C(=O)N[C@@H](CO)C(=O)N[C@@H](Cc1c[nH]c2ccccc12)C(=O)N1CCC[C@H]1C(=O)N[C@H](C(=O)N[C@@H](Cc1ccccc1)C(=O)N[C@@H](CCC(=O)O)C(=O)NCC(=O)N[C@@H](CC(=O)O)C(=O)N[C@@H](CC(=O)O)C(=O)N[C@@H](C)C(=O)N1CCC[C@H]1C(=O)N[C@H](C(=O)N[C@@H](CCCNC(=N)N)C(=O)N[C@@H](CCCNC(=N)N)C(=O)N[C@@H](CC(C)C)C(=O)N[C@@H](COP(=O)(O)O)C(=O)N[C@@H](Cc1ccccc1)C(=O)N[C@@H](Cc1ccccc1)C(=O)N[C@@H](Cc1ccc(O)cc1)C(=O)N[C@H](C(=O)N[C@@H](CC(C)C)C(=O)N[C@@H](CC(C)C)C(=O)N[C@@H](CC(=O)O)C(=O)N[C@@H](CC(C)C)C(=O)N[C@@H](Cc1ccc(O)cc1)C(=O)N[C@@H](CC(C)C)C(=O)N[C@@H](CC(=O)O)C(=O)N[C@@H](C)C(=O)N1CCC[C@H]1C(=O)NCC(=O)N[C@H](C(=O)N[C@@H](CSCC(=O)Nc1ccc2c(c1)C(=O)OC21c2ccc(O)cc2Oc2cc(O)ccc21)C(N)=O)C(C)C)[C@@H](C)CC)C(C)C)[C@@H](C)O
notes: also called PPKID6 (phosphorylated)
For orientation: Kd means a measure of binding affinity in units of concentration. With B1, in assay [1], the “fold enhancement in affinity over unphosphorylated PPKID6” value is 2 fold and the “ΔΔG relative to unphosphorylated PPKID6” value is -0.5 kcal/mol. The Kd in assay [2] was determined as 624 nM.

B2: p4100 (designed binder)
peptide: GPSQPTYPGDDAPVEDLIRFVGRLLRYFGDEINRYC(5‑iodoacetamidofluorescein)-NH2
notes: As for p4099: amino terminal portion from aPP (e.g., residues 1-19); also called p4122 (labelled form, by order and mass)
B2: the Kd in assay [3] was found to be 401 nM.

B3: p4101 (designed binder)
peptide: GPSQPTYPGDDAPVEDLIRFVGRLLAYFGDDINRYC(5‑iodoacetamidofluorescein)-NH2
notes: As for p4099: amino terminal portion from aPP (e.g., residues 1-19); also called p4123 (labelled form, by order and mass)
Turning to B3, the Kd in assay [3] was found to be 811 nM.

B4: peptide C^U (peptide)
peptide: RRLSFFYILLDLYLDAPGVC(acetamidofluorescein)-NH2
notes: also called Peptide C (unphosphorylated)
In the case of B4, the values for the Kd in assay [4], in assay [5] and in assay [2] were 21500 nM, 66000 nM and 21500 nM, respectively. In addition, the “ΔΔG relative to KID-B^U” value in assay [1] is > -1.5 kcal/mol.

B5: PPKID4^P F20A (designed binder)
peptide: GPSQPTYPGDDAPVRRL[pS]FAYILLDLYLDAPGVC(acetamidofluorescein″)-NH2
Turning to B5, the “ΔΔG relative to wild type PPKID4^P” value in assay [6] worked out at 0.85 kcal/mol. The affinity in assay [7], expressed as Kd, was 2550 nM.

B6: PPKID4^P P8A (designed binder)
peptide: GPSQPTYAGDDAPVRRL[pS]FFYILLDLYLDAPGVC(acetamidofluorescein″)-NH2
In the case of B6, the “ΔΔG relative to wild type PPKID4^P” value in assay [6] is 0.33 kcal/mol. For the same molecule, the Kd in assay [7] is 1070 nM.

B7: PPKID4^P P5A (designed binder)
peptide: GPSQATYPGDDAPVRRL[pS]FFYILLDLYLDAPGVC(acetamidofluorescein″)-NH2
As to B7, in assay [6], the “ΔΔG relative to wild type PPKID4^P” value worked out at 0.3 kcal/mol. Also, binding in assay [7] was put at a Kd of 1020 nM.

B8: PPKID4^P P2A (designed binder)
peptide: GASQPTYPGDDAPVRRL[pS]FFYILLDLYLDAPGVC(acetamidofluorescein″)-NH2
As to B8, the “ΔΔG relative to wild type PPKID4^P” value in assay [6] amounted to 0.21 kcal/mol. In assay [7], this molecule displayed a dissociation constant (Kd) of 870 nM.

B9: PPKID4^P L17A (designed binder)
peptide: GPSQPTYPGDDAPVRRA[pS]FFYILLDLYLDAPGVC(acetamidofluorescein″)-NH2
On to B9, for which the “ΔΔG relative to wild type PPKID4^P” value in assay [6] worked out at 0.07 kcal/mol. In assay [7], this molecule returned a Kd of 680 nM.

B10: PPKID4^P L24A (designed binder)
peptide: GPSQPTYPGDDAPVRRL[pS]FFYILADLYLDAPGVC(acetamidofluorescein″)-NH2
For B10, the “ΔΔG relative to wild type PPKID4^P” value in assay [6] came to 0.38 kcal/mol. This molecule also gave a Kd in assay [7] of 1160 nM.

B11: PPKID4^P Y27A (designed binder)
peptide: GPSQPTYPGDDAPVRRL[pS]FFYILLDLALDAPGVC(acetamidofluorescein″)-NH2
Turning to B11, the “ΔΔG relative to wild type PPKID4^P” value in assay [6] worked out at 0.96 kcal/mol. The affinity in assay [7], expressed as Kd, was 3090 nM.

B12: PPKID4^P L28A (designed binder)
peptide: GPSQPTYPGDDAPVRRL[pS]FFYILLDLYADAPGVC(acetamidofluorescein″)-NH2
Turning to B12, in assay [6], the “ΔΔG relative to wild type PPKID4^P” value worked out at 0.18 kcal/mol. For the same molecule, binding in assay [7] was characterised by a dissociation constant (Kd) of 830 nM.

B13: p4102 (designed binder)
peptide: GPSQPTYPGDDAPVEDLIRFVSRLRYIADLINRYC(5‑iodoacetamidofluorescein)-NH2
notes: Mutant with a single amino acid deletion in the alpha-helix; Amino terminal portion from aPP (e.g., residues 1-19); also called p4124 (labelled form, by order and mass)
For the molecule B13, the Kd in assay [3] is 3700 nM.
